From the RNAGym collection of RNA variant scans (doi:10.1073/pnas.2313332121) come the findings set out here.

First the molecules themselves.
B1: TPR t1 (parent)
chain: GACCAAUCUGCCCUCAGAGCUCGAGAACAUCUUCGGAUGCAGAGGAGGCAGGCUUCGGUGGCGCGAUAGCGCCAACGUCCUCAACCUCCAAUGCAUCCCACCACAUGAUGAUGCCUGAAGAGCCUUGGUUUUUUG

The variants in the series derive from B1. Briefly: polymerase ribozyme fitness, log enrichment relative to wild type (log ratio); higher = more active; in vitro selection for triplet polymerase activity. The essentials: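 Streptavidin-bead capture of gel-excised extended constructs, followed by RT-PCR, closed a single triplicate in vitro selection round. That round began by annealing PCR-built, transcribed mutant libraries of each subunit of a heterodimeric triplet polymerase ribozyme with a biotinylated primer, the partner subunit and triplets, then incubating them frozen at −7 °C. After Illumina sequencing of inputs and outputs, genotypes needed ≥10 input reads and ≥1 read per output. Fitness is the base-2 logarithm of genotype enrichment over wild-type enrichment, using inverse-variance-weighted replicate averages.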
Regarding GACCAAUCUGGCCUCAGAGCUCGAGAACAUCUUCCGAUGCAGAGGAGGCAGGCUUCGGUGGCGCGAUAGCUCCAACGUCCUCAACCUCCAAUGCAUCCCACCACAUGAUUAUGCCUGAAGAGCCUUGGUUUUUUG, the “polymerase ribozyme fitness (log ratio)” value was -7.04.
With GACCAAUCUGGCCUCAGAGCUCGAGAACAUCUUCGGAUGCAUAGGAGGCAGGCUUCGGUGGCGCGAUAGCGCCAACGUCCUCAACCUCCAAUGCAUCCCACCACAUGAUGAUGCCUGAAGAGCUUUGGUUUUUUG the figure was 0.5; with GACCAAUCUGGCCUCAGAGCUCGAGAACAUCUUCGGAUGCAGAGGAGGCAGGCUUCGGUGGCGCGAUAGCGCCAACGUCCUCAACCUCCAAUGCAUCCCACCACAUGAUGAUGCCUUAAGAGCCUUGGUUUUUUG, -1.54.
The result for GACCAAUCUGGCCUCAGAGCUCGAGAACAUCUUCGGAUGCACAGGAGGCAGGCUUCGGUGGCGCGAUAGCGCCAACGUCCUCAACCUCCAAUGCAUCCCACCACAUGAUGAUGCCUGAAGAGCCUUGGUUUUUUG reads -1.1.
The result for GACCAAUCUGGCCUCAGAGCUCGAGAACAUCUUCGGAUGCAGAGGAGGCAUGCUUCGGUGGAGCGAUAGCACCAACGUCCUCAACCUCUAAUGCAUUCCACCACAUGAUGAUGCCUGAAGAGCCUUGGUUUUUUG reads -6.66; that for GACCAAUCUGGCCUCAGAGCUCGAGAACAUCUUCGGAUGCAGAGGAGGCAGGCUUCGGUGGCGCGAUAGCGCCAACGUCCUCAACCUCCAAUGCAUCCCACCACAUGAUGAUGCCUGAAAAGCCUUGGUUUUUUG, 1.51; that for GACCAAUCUGGCCUCAGAGCUCGAGAACAUCUUCGGAUGCAGAGGAGGCAGGCUUCGGUGGCGCGAUAGCGCCAACGUCCUCAACCUCCAAUGCAUCCCACCACAUGAUGAUGCCUGAAUAGCCUUGGUUUUUUG, 1.37.
For GACCAAUCUGGCCUCAGAGCUCGAGAACAUCUUCGGAUGCAGAGGAGGCAGGCUUCGGUGGCGCGAUAGCGCCAACGUCCUCAACCUCCAAUGCAUCCCACCACAUGAUGAUGCCUGAACAGCCUUGGUUUUUUG, the “polymerase ribozyme fitness (log ratio)” value was determined as 1.89.
The result for GACCAAUCUGGCCUCAGAGCUCGAGAACAUCUUCGGAUGCAGAGGAGGCAGGCUUCGGUGCCGCGUUAGCGCCACCGUCCUCAACCUCCAAUGCAUCCCACCACAUGAUGAUGUCUGAAGAGCCUUGGUUUUUUG reads -3.81; that for GACCAAUCUGGCCUCAGAGCUCGAGAACAUCUUCGGAUACAGAGGAGGGAGGUUUCGGUGGCGCGAUAACGCCAUCGUCCUCAACCUCCAAUGCAUCCCACCACAUGAUGAUGCCUGAACAGCCUUGGUUUUUUG, -2.05.
Turning to GACCAAUCUGGCCUCAGAGCUCGAGAACAUCUUCGGAUGCAGAGGAGGCAGGCUUCGGUGGCGCGAUAGCGCCAACGCCCUCAACCUCCAAUGCAUCCCACCACAUGAUGAUGCCUGAAGAGCCUUGGUUUUUUG, the “polymerase ribozyme fitness (log ratio)” value is 0.168.
The result for GACCAAUCUGGCCUCAGAGCUCGAGAACAUCUUCGGAUGCAGAGGAGGCAGGCUUCGGUGGCACGAUAGCGCCAACGUCCUGAACCUCCAAUGCAUCCCACCACAUGAUGAUGCCUUAAGAGGCUUGGUUUUUUG reads -2.82.
The result for GACCAAUCUGGCCUCAGAGCUCGAGAACAUCUUCGGAUGCAGAGGAGGCAGGCUUCGGUGACGCGAUAGCGCCAACGUCCUCAACCUCCAAUGCAUCCCACCACAUGAUGAUGCCUGAAGAGCAUUGGUUUUUUG reads 2.07; that for GACCAAUCUGGCCUCAGAGCUCGAGAACAUCUGCGGAUGCAGAGGAGGCAGGCUUCGGUGGCGCGAUAGCGCCAACGUCCUCAACCUCCAAUUCAUCCCACCACAUGAUGAAGCCUGAAGAUCCUUGGUUUUUUG, -6.28; that for GACCAAUCUGGCCUCAGAGCUCGAGAACAUCUUCGGAUGCAGAGGAGGCAGGCUUCGGUGGCGCGAUAGCUCCAACGUCCUCAACCUCCAAUGCAUCCCACCACAUGAUGAUGCCUGAAGAGCCUUGGUUUUUUG, 0.0897.
The result for GACCAAUCUGGCCUCAGAGCUCGAGAACAUCUUCGGAUGCAGAGUAGGCAGGCUUCGGUGGCGCGAUAGCGCCAACGUCCUCAACCUCCAAUGCAUCCCACCACAUGAUGAUGCCUGAAGAGCCUUGGUUUUUUG reads -2.69; that for GACCAAUCUGGCCUCAGAGCUCGAGAACAUCUUCGGAUGCAGAGGAGGCAGGCUUCGGUGGCGCGAUACCGCCAACGUCCUCAACCUCCAAUGCAUCCCACCACAUGAUGAUGCCUGAAGAGCCUUGGUUUUUUG, -1.7; that for GACCAAUCUGGCCUCAGAGCUCGAGAACAUCUUCGGAUGCAGAAGAGGCAGGCUUCGGUGGCGCGAUGGCGCCAACGUCCUCAACCUCCAAUGCAUCCCACCACAUGAUGAUGCCUGAAGAGCCUUGGUUUUUUG, -4.14.
With GACCAAUCUGGCCUCAGAGCUCGAGAACAUCUUCGGAUGCAGAGGAGGCAGGCUUCGGUGGCGCGAUAGCGCCAACGUCCUCAACCUCCAAUGCAUCCCACCACAUGAUGAUGCCUGAAGAGCCUUCGUUUUUUG, the “polymerase ribozyme fitness (log ratio)” value was -0.995.
With GACCAAUCUGGCCUCAGAGCUCGAGAACAUCUUCGUAUGCAGAGGAUGCAGGCUUCGGUGGCACGAUAGCGCCAACGGCCUCAACCUCCAAUGCAUCCCACCACAUGAUGAUGCCUGAAGAGCCUUGGUUUUUUG, the “polymerase ribozyme fitness (log ratio)” value was -2.93.
With GACCAAUCUGGCCUCAGAGCUCGAGAACAUCUUCGGAUGCAGAGGAGGCAGGCUUCGGAGGCGCGAUAGCGCCAACGUCCUCAACCUCCAAUGCAUCCCACCACAUGAUGAUGCCUGAAGAGCCUUGGUUUUUUG the figure was 0.0952.
